# Variants at the floor of the assay were thinned out.
# B1: TPR 5TU (parent)
# chain: GGAUCUUCUCGAUCUAACAAAAAAGACAAAUCUGCCACAAAGCUUGAGAGCAUCUUCGGAUGCAGAGGCGGCAGCCUUCGGUGGCGCGAUAGCGCCAACGUUCUCAACUAUGACACGCAAAACGCGUGCUCCGUUGAAUGGAGUUUAUCAUG
# Variants of: B1
# Assay: polymerase ribozyme fitness, log enrichment relative to wild type (log ratio); higher = more active; in vitro selection for triplet polymerase activity
# Procedure, shortened: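 Mutant libraries were PCR-built and transcribed for each subunit of a heterodimeric triplet polymerase ribozyme and selected for one round in triplicate at −7 °C, frozen, before gel excision of extended constructs and streptavidin-bead capture. Input and output libraries were Illumina-sequenced, keeping genotypes with ≥10 input reads and ≥1 read per output. Fitness is a logarithmic ratio of genotype to wild-type enrichment, in base 2, using inverse-variance-weighted replicate averages.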
row,Variant,polymerase ribozyme fitness (log ratio)
1,GGAUCUUCUCCAUCUAACAAAAAAGACAAAUCUGCCACAAAGCUUGAGAACAUCUACGGAUGCAGAGGCGGCAGCCUUCGGUUGCGCGAUAGAGCCAACGUUCUCAACUAUGACACGCAAAACGCGCGCUCCGUCGAAUGGAGUUUAUCAUG,≤ -4.2
2,GGAUCUUCUCUAUCUAACAAAAUAGACAAAUUUGCCACAAAGCUUGAGAGCAUCUUUAGAUGCAGAGGCGGCAGCCCUCGGUGGCGCGAUAGGGCUUACUUUCUCAACUUUGACACGCAAAACGCGUGCUCCGUUGAAUGGACUUUAUCAUG,≤ -4.2
3,GGAUCUUCUCCAUCUAACAAAAAAGACAAAUCGGCCAUAAAGCUUGCGCGCAUCUUCGGAUGCAGAGGCGGCAGCCUUCGGUGGCGCGAUAACGCCGACGUUCUCAACUAGGACACGUAAAACGCGUGCUCCUUUGAAUGGAGUUUAUCAUG,-4.17
4,GGAUCUUCUCUAUCUUACAAAAAAGACAAAUCUGCCACAAAGCUUGAGAGCCUCUUCCGAUGCAAAGGCGGCAGCCUUAGGUUGCGCGAUAGUGCCAACGUUCUCAACUAUGACACGAAAAACGCGUGCUCCGUUGAAUGGAGUUUAUCAUG,≤ -4.2
5,GGAUCUUCUCUAUCUAACAAAAAAGACUAAUCUGCCACAAAGUUUGAGAGCAUCUUCGGAUGCAGAGGCGGCAGCCUUCGGUGGCGAGAUAGCGCCAAGGUUCUCAACUAUGACACGCAAAACGCAUGCUCCGUUGAAUGGAGUUUAUCAUG,-4.16
6,GGAUCUUCUCCAUCUAACAAAAAAGACAAAUCUGCCACAAAGCUUGAGAGCAUCAUCGGAUGCAGAGGCGGCAGCGUUCGGUGGCGCGAUAGCGCCAACGUUCUCAACUAUGACACGCAAAACGCGUGCUCCGUUGAAUUGAGUUUAUCAUG,≤ -4.2
7,GGAUCUUCUCCAUCUAACAAAAAAGACAAAUCUGCCACAAAGCUUGAGAGCAACUUCGGAUGCAGAGGCGGGAGCCUUAGGAGGCGCGAGAGCGCCAACGUUCUCCACUAUGACACGCAAAACGCGUGCUCCGUUGAAUGGAGUUUAUCAUG,≤ -4.2
8,GGAUCUUCUCCAUCUAACAAAAAAGACAAAUCUGCCACAAAGCUUGAGAGCAUCUUCGGAUGUAGAGGCGGCAGCCUUCGGUAGCGCGAUAGCGCCAACGUUCUCAACUAUGACUCGCAAAACGCGUGCUCCGUAGAAUGGAGUUCAUCAUU,≤ -4.2
9,GGAUCUUCUCUAUCUAACAAAAAAGACAAUUCUGCCACAAAGCUUGAGAGCAUCUUCGGAUGCAUAGGCCGCAGCCUUCGGUGGGGCGAUUGAGCCAACGUUCUCAACUAUGACACGCAAAACGCGUGCUCCGUUGAAUGGAGUUUAUCUUG,≤ -4.2
10,GGAUCUUCUCCAUCUAACAAAAAAGACAAAUCUGCCACAAAGCUUGAGAGCAUCUUCGGAUGCAGAGGCGGCAGCCUUCGGUGGCGCGAUAGCGCCAACGUUCUCAACUAUGACACGCAAAACGGGUGCUCCGUUGAAUGGCGUUUAUCAUG,≤ -4.2
11,GGAUCUUCUCUAUCUAACAAAAUAGACAAAUCUGCCACAAAGCUUGAGAGCAUCUUCGGAUGCAGAGACGGCAGCCUUCGGUGGCGCGAUAGCGCCAACGUUCUCAACUAUGACACGCAAAACGCGUGCGCCGUCGAAUGGAGUUUAUCAUG,≤ -4.2
12,GGAUCUUCUCUAUCUAACCAAAAAGACAAAUCUGCCACAAAGCUUGAGAGCAUCUUCGGAUGCAGAGACGGCAACCUUCGGUGGCGAGAUAGCGCCAACGUUCUCAACUAUGACACGCAAAACGCGUGCUCCGUUGAAUGGAGUUUAUGAUG,≤ -4.2
13,GGAUCUUCUCUAUCUAACAAUAAAGACAAAUCUGCCACAAAGCUUGAGAGCAUCUUCGGAUGCAGAGGCGGCACCCUUCGGUGGCGCGAUAUCGCCAACGUUCUCAACUAUGACACGCAAAACGCGUGCUCCGUUGAAUGGAGUUUAUCAUG,≤ -4.2
14,GGAUCUUCUCUAUCUCACAAAAAGGACAAAUCUGCCACAAAGCUUGAGAGCAUCUUCCGAUGCAGAGGCGGCAGCCUUCGGUGGCGAGAUAGCGCCAAUGUUCUCAACUAUGACACGCAAAACGCGUGCUCCGUUGAAUGGAGUUUAUCAUG,≤ -4.2
15,GGAUCUUCUCCAUCUAACAAAAAAGACAAAUCUGCCACAAAGCUUGAGAGCAUCUUCGGAUGCAGAGGCGGCAGCCUUCGGUGGUGCGAUAGCGCCAACGUUCUCAACUAUGACACGCGAAACGCGUGCUCCGUUGAAUGGAGUUUAUCAUG,-2.02
16,GGAUCUUCUCUGUCAAACAAAAAAGACAAAUCUGCCACAAAGCUUGAGAGCAUCUUCCGAUGCAGAGGCGGCAGCCUUCGGUGGCGCGAUAGCUCCAACGUUCUCAACUAUGACACGCAAAACGCGUGCUCCGUUGAAUGGAGUUUAUCAGG,≤ -4.2
17,GGAUCUUCUCCAUCUAACAAAAAAUACAAAUCUGCCACAAAGCUUGAGAGCCUUUUCGGAUGCAGAGGCGGCAGCCUUCGGUGGCGCGAUAGCGUCAACGUUCUCAGCUAUGACACGCAAAACGCGUGCUCCGUUGAAUGGAGAUUAUCAUG,≤ -4.2
18,GGAUCUUCUCCAUCGAACAAAAAAGACAAAUCUGCCACACAGCUUGAGAGCAUCUUCGGAUGCAGAGGCGGCAGCCUUCGGUGGCGAGAUAGCGCCAACGUUCUCAACUAUGACACGCAAAACGCGUGCUCCGUUGAAUGGAGUUUAGCAUG,≤ -4.2
19,GGAUCUUCUCCAACUAACAAAAAAGACAAAUCUGCCACAAAGCUUGAGAGCAUCUUCGGAUGCUGAGGCGGCACCCUUCGGUGGUGCGAUAGCGCGAACGUCCUCAACUAUGACACGCAAAACGCGUGCUCCGUUGAAUGGAGUUUAUCAUG,≤ -4.2

# Source: the RNAGym collection of RNA variant scans (doi:10.1073/pnas.2313332121)
